Patent US20260285956 (published 2026)

Target: soluble TDP-43 (human)
Assay: SPR

Chain of soluble TDP-43 (human) (chain, as listed by the source): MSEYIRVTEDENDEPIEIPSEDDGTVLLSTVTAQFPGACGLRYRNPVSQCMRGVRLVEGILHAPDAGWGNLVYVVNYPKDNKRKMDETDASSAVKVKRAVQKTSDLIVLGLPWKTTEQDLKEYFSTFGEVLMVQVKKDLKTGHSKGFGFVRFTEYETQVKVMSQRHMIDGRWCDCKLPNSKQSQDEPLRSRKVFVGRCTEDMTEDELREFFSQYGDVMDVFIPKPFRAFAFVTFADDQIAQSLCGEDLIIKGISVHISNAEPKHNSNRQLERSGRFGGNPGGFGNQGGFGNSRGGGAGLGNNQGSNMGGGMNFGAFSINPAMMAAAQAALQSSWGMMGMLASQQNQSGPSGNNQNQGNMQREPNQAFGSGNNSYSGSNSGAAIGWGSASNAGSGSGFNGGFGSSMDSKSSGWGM

Binder	Kd
ACI-7071-704H9-Ab1 (antibody, V domains shown) VH: EVQLVESGGDLVKPGGSLKLSCAASGFTFANYAMSWIRQTPEKRLEWVATISGGGLYINYPANLKGRFTISRDNAKNNLYLQMSHLKSEDTAMYYCVKDRGQNWSWFAYWGQGTLVTVSA VL: QLVLTQSSSASFSLGASAKLTCTLSSQHSTYTIEWYQQQPLKPPKYVMELEKDGSHSTGDGIPDRFSGSSSGADRYLSISNIQPEDEAIYICGVGDTIKEQFVYVFGGGTKVTVL	0.23 nM
ACI-7071-801H1-Ab1 (antibody, V domains shown) VH: EVQLQQSGPELVKPGASVKISCKTSGYTFTEYTMHWVKQSHGQSLEWIGGIHPNNGGTIYNQKFKGRATLTVDKSSSTAYMEFRSLTSDDSAVYYCASPCWGQGTSVTVSS VL: not shown	0.75 nM
ACI-7071-810H12-Ab1 (antibody, V domains shown) VH: QVQLQQSGAELVRPGASVKLSCKALDYTFTDYEMHWVKQTPVHGLEWIGAVHPRSGGTVYNQRFRAKATLTADKSSSTAFIELSSLTSEDSAVYFCTYYGYDEIYWGQGTLVTVSA VL: DVVMTQISFSLPVSLGDQASISCRSSQSLVHSDGTTYLHWYLQKPGQSPKLLIYKVSNRFSGVPDRFSGSGSGTDFTLKISRVEAEDLGVYFCSQSTHAPYTFGGGTKLEIK	0.38 nM

Binders with a lower Kd, results first:

Kd	Binder
0.11 nM	ACI-7071-707A6-Ab1 (antibody, V domains shown) VH: EVQLVESGGVLVKPGGSLKLSCAASGFIFSSFSMSWVRQNPEKRLEWVATISAAGRYIYYPDNVKGRFTISRDNAKNNLYLYMSHVRSEDTAIYYCVKDRGLNWSWFAYWGQGTLVTVSA VL: QLVLTQSSSASFSLGASAKLTCTLSSQHSTYTIEWYQQQPLKPPKYVMELKKDGSHSTGDGIPDRFSGSSSGADRYLSISDIQPEDEAVYICGVGDTIKEQFVYVFGGGTKVTVL
0.2 nM	ACI-7071-806H5-Ab1 (antibody, V domains shown) VH: DVKLEDSGGGLVQPEGSMKLSCVASGFIFSDAWMAWVRQSPEKGLEWVAEIRGRASSHATYYAESVKGRFTISRDDSKSSVYLQMNSLRAEDTGVYYCTRGVNYWGQGTALTVSS VL: not shown
